Laboratory results: a protein production outcome set (Wang et al. 2014)

Assay: label from the status in PepcDB records
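Note: failed if final PepcDB status was selected cloned or expressed and not failed if soluble or beyond.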

Sequence	protein production
MIGQTDQNIVITYSANIQQVKILYVDEKGSEVSSMLLKGNTDQTVNVSYSVPDHWIAISGQDSPLQYTFKAKDNKNIVIRIGHKLEDQENDIHKIIRNVNIVNPDGSVAKVSQTAIFTRVHQRDEVTGEEVYGNWDKISQDFNAIDIPKIFGYTATSSVGKMTVTPDSQSENITITYTADIQNNKIVIIDDESHGSQINTVGFTGKTGKSIAWQVTIPENYDLAAGGKISGNYTFNAVNQIPIEVHVRHKHVQDDESKSVTRTIVTNLPGLDKSEIVQTVTFSRIIDKDLVDGN	failed
MIHAVAPCCPHAPRTTWEFHLRLLPLATALTLAVAMGVTPAQENRLPDIGSSAGELLTPARQAEYGKMMLAELRNYDYVLDDPLITDWLQTMGTRLGANSDQPQQPFTFFMLRDRQINAFATLGGYVAVNAGLVLTAEREDEVAAVLSHEIAHVTQQHVLRAVERAQRDQIPILLGMLAAVVAAQQAGGNSKGDATMATITSAMGLMQQRQIDYTRSNESEADRLGIRTLARSGYDVDAMAGFFERMSVAMRANEGGYSAPDFLQTHPVTVTRISEAKARAEQMKKNTVVLTTSVPGGSRQERVDPADPSLSEPLSHNGNALLPYALRLPVDALSRGADQQGFDWAKERLRVLSAATPDAAIREYENLRRSAKQGLSDAQRYGLALAKLRNSGGRPSEPVAELSSLLEAHPDNLWLALGLSQAQARVGQREAANARFDALLKQLPNNRAVALTYASALNEQASKESGQRARQVLEPLVHRSSDDPLLQQSYARACELSGDQLRASEAYAEAAFLNGRAEQALIQLEALKKKDLDYVTRARVDARIAAITPTVLELRRQGIRDPDLSTR	failed
MIHVREFQASDSDVVLHLLDLKDIINSSSFSEKVFQLSESGDFLGLVAEANQSGKHQVVGCAFLRLLETISRGLHCQIEELAIDKAWLHQGVGKSLMETATSWAKERGVGDIYVDSPYASIAVKEGIDSVFVRDEVLEVAQQYEAEKEELQESLKKQYNTTISKLEKEYEAKKQQQDETIHNLQTQLEDATQYLEEQQAEENELLNIDPSSPRNHTGPYPRGRGFWGTLCFPIRKTCGPGSCLRLPSGPASVRGSTDRSN	not failed
MIHWRNCLASAVPKLAVIAHDLIQVWVCWVALHAARYSMLVHPPGLPYVDWRTLVVLIAQAVVFWRVGLYRGLWRFASVPDLWNIFKSAFSGLIVIVLVLSVTRFEGVPLSVLVVYPFALSVLLGMPRLLYRAWKDYQLIHPVDSSERVLILGAGRTAEALVRDMRRTGAFVPVGFIDDAVYLRGAKIQGLNVLGRLEEVSTIARETAAKLLVIAIPSLDAAGMQRVVAMCESTGLPFRMVPKLIDVLEGRTLPCQLKEVSIEDLLNRKPVIPDWRLIRSWLSGKTVMVTGGGGSIGSEVCRQCARHGASRVVIVEIDELALLTIHSDLRRLFPDIEVLPILGDCGDAAVIAHALRCVRPDAVFHAAAYKQVPLLEEQLREAVRNNVLATENVARHCVAAKIQTFVFISTDKAVEPVNVLGATKRYAEMVCQSFDAKSTGTRFVTVRFGNVLDSAGSVVPLFREQIRQGGPVTVTHPDVTRYFMTISEACQLILQAAALASHGAIYTLDMGEPVRINLLAEQMIRLAGKQPGRDIVIVYTGLRPGEKMHETLFYADENYRPTAHPNILEADVRTFPQEQVLQSVMRLREAVQHYDTVEIESVISMLMPDFHAARHKKETRFETVVPFPAREVRRL	failed
MIIAIPVSENRGKDSPISEHFGRAPYFAFVKVKNNAIADISVEENPLAQDHVHGAVPNFVKEKGAELVIVRGIGRRAIAAFEAMGVKVIKGASGTVEEVVNQYLSGQLKDSDYEVHDHHHHEHH	not failed
MIIDDIINKIKSSNKIAISFHISPDGDSIGSSLGLLNGLRSIGKETYILSKEVVPESFEFLNFAREIDGNHFEVEDNTDLLITLDCGNIERLNFDTSDMISEDKKYTVINIDHHVTNDSFGDLNYINTKAASVGEIVYDLLSKMNISIDRTIAACLYTSILTDTGSFRFSNTTLNTHVVAGNLISTGLDFSEIHRKIFDNKKFEALKLQALVLNDMYLTFNNKLCVMKVTHDFIEKANAEDVDTGDLVSLGLKVNTAEVCMLLKEKDDCIKVSLRSKSYVDVRKIAEKFGGGGHIRAAGLSINSNILDAEKMILSEIQGELLEHHHHHH	failed
MIIGCSASQKLAASVADLLDEPLCPVETRKFPDGERYIRVKEEVEGEVTVVQSTGYPQDENLMELLFMIENLKDLGADYVRAAIPYFGYGRQERRFKSGEAVSAKIVAHLLEAAGADEIVTVNLHENCLSEFFRVPVRELSAMPLIAEHISFLDDPVIIAPDKGALGHAREVSDILGCECDYMEKVRISPEVVETRVSDLDVEGKDAVVVDDIISTGGTIVNAAGILGKCGASSITVCCVHPVLVEDALLKIFSAGVERVIATDTLKSDVSEISVAPLIADVMKD	failed
MIIIKNGALVTPQGLRRADLAMEGDKIVRIAAAIEPGEDDTVQDATDCWVFPGFIDGHTHMQCWTGMDWTADSFETGTRAAVCGGTTTIVDYATADRGVTMPDALVEWHHRADGTCTANYAFHMALAEWNERNRADLSAMREAGVSSFKTYFAYDHLRLDDAETLEVLEELKRVGGILCVHCENGTLVNALQKRVFEQGIHGPEGHALSRPDVCEGEAVSRLLYLAHLAGDAPVNVVHLSTKLGLEAIRAAKARGQKNIYVETCPQYLMLDDTCYLEQGEDGFAGAKYVMSPPLRHAGDRAALREALVAGEIDTIATDHCSFNLHGQKDRGRDDFRAIPNGGPGVEHRPVAIATSFEGQLGPEDLCRLMSENPARVFGMYPRKGCLAEGADADVCVWDPQARWTIRAATQHQAVDYTPLEGFEAHGRAKAVFVNGVLAARDGEPTGAQPGRYVPR	failed
MIILSFYKLLERVICVHSITTYWWKYYLASFFSILVIGIVISSLNINIPYFFLIQIGLVFSLWYLISPIIMILVFKMRRAPQDVTFMVEDLSKKYNVKLSKVYIINDNFLNAFAFGNIIFRGIAVTSPLYESLVQEELAAVLSHEIAHIKNYDPEVMLLTIFSINSIYAALIYYLPLVSLFFLIIYFVILLPSVFYVHRKIEKRADLTAVKVNPDITYWLESSLIKIGYLSRSIPTNMLRYVPPIQIFLAKEFIVNHIVDEKSVLSFRTHPSLKERLLYLSQYEKQKMYYI	failed
MIIMLSEYLEEFKEYLERFKNIDINFSDVLKMSKKFIIWRLKQIFGDSSTIFTNISSEITIFDKIFQMIDYDIDGEVEKRLPKDESRFMIGVRREKEIEIKKEIITNLLDFLLIILLSHTPYFNAFVRKYAEIKKIKVIKKLPNKISVWEFIKIASRSRINDLHLERLDLENGFVDITKIKEIFAKEIIRVELMKLGENIKKRKLPDDSVVKELLNEISDYLKDKVKYEQISGIKALNYKGNIPLEWHPPCIRGILNDILSGGSPSHYARRSFVVYWFCAKFNPNLRPLDKNGNLVNVSATDIASEEEIERFIDELIEMLFKNVEDFDEKKTRYYIMHNIGYKVGHGRLTHCEYCKNWQDDGGKGLSYYCKPDELCKKKFIIHPLDYLCYNINKHLKKERFKKIKKEDKNGDNKLEHHHHHH	not failed
MIIMVTEVDVLVIGAGPAGSTAAKHAALGGADVLLIDKKSEIGAPKRCAEGVSIGGLESLGIEPNPRWITKKLDGVRMVSPNGTDVWLTSDKVELPEAGYILERKVFDKFMAMDAARAGSRIMVKTIATGMERTDDGYLVSAECMGEKFEIKARIVIAADGPESRVARWAGLNTATRPKDMESAAQFEMVGVEMEDNNCIEFYFGSVAPGGYALDIPEGDDIANVGLGVLSTETDKSAYEHLLEFVESCPATRNAQPVELNIGGDPVGGMPKKLVADSLMVVGDAAGQVNPLTGGGIISGMKGGMLAGQVAAAAVSEGDVTARRLGEYERLCREEIGDEISKYLKVKEYLLTLSDSELDSIAEAFQDVEFEKVSTTELVKKLIKVSPKALLKLGKLFLEHHHHHH	failed
MIIPDLFRLNDWSTRRFNLFIWSILVAYDFSFISNVPLYSIEILSKILGFVILTFIPGYIILRIFKVHDIDRVVTLLLAIGLSLSFIMIFGFTVNMFLPYIGVSKPISTFPLFYSLNISILVLMIIYYFRDKKFNSSQNQLRITFSPMLFYFILLPLFSILGTESVNHYNFNMPVLILLFVISLSPILIALDRISRDLYPFMILSISLAILYNMNLISTHLWSYDIFYEAHTSKYVLENGIWNPGNKTMVPLLLFTILSPVYSLICDLNVIWVFKIIFPFFFSLTPLALYYVYKELDFGNYKIDSEIAMLSVFVFIFFYGFYKDMPDKQHIAELFLALILILSIFNTQKRILLFIFSFSLVVSHYGISYFFVFSLIFVSMMSRFRVNADTSFLTPTYTLLFSVLTFSWYIYISAGDVFEVITQVGYHFLSGIKDIFQANNDGRSASAYLSYLSNGILWVIYMLIHLILQFFIFIGVLNLLLSIMHNKTKSFEIALLTIIFYAFLFVQFFKTYGMGLDRILQITLILLSPLSIWGYSFCVKNLNSVYARIISKRIYRNKENGNLNLIFESTLTRNEAINKNHITNLSKKARLCFSIFLMIFFVFNSGFIFWMTGYPLPGYCININPNSGWPVYSESEICGVDWLKSHENEHNRIAVFNQWDTIKSRDGLLVAENFYSKDLIPIQTNTTTLYNSYLFLGKYSVDKVEDGEEDVDLQDTLFYNSTLKNSNKIYNSEKSHLYLAE	failed
MIIPMNNKHPLPTPLVSIIIPVYNVEKYLYRCVKSILSQDYYDYEIILVDDGSTDGSGMICDELTEQHGHISVIHKPNGGQGSARNAGLNHAKGKYIWFIDSDDYISPHSLSVIMSQITQGDFDALFFPYIKSNGNILIGEAVGKYHAGVYRGQQLLLEGLVNMSMCTIVSLRSRWIDNRIFFREDIHFEDFEINPRVLKFLERAIFLDSNIIPYIYYTRLGSTMNQLDPQKRMRQTEDFLRIEKSWKEWFNLDSPEPNSYDMLMLRTGTNMLHRNLLNFVRNSNFSISTKLKLYAQYRKKGVFSWFYNGYRRDPYVGCTSVRVFWNTIGRSYILFSLFSIVEEIWKKIRK	failed
MIIRIKHYGEVKIEDSKNLLLNLIENRIGIDNICNGKGTCGKCKVRFRQGVPEATSADLRYLSVEELEEGVRLACQVKPQKGMEIDVTLSNSFDRKNTVLRRDDQVALDSGLSGISLTIPQPSLEDERGDWDRIIDEYRKVMPEQGLALPSLGVLERLPGTLRKLDYRITAVTWQNRVIDVQPGHDTALHGLAVDIGTTSVAVALIDLKTGEVLGSVSAENGQTAFGGDVISRIAYAGEGLKNRLQLTAAVRSTINTLIDELVLQHEIVRNSIYKMTIVANTTMSHLFLGLDVSNLAVSPYVSVYNQALEFSAKELGLGSNPEAVVQILPNIGSFVGGDTVGALLGAPEVLTQGNHLLLDLGTNCELVLKTEKMMLACSTAAGPAFEGAGIFHGMRAKPGAIEGIRIHEEGVELRVIGDEEALGICGSGLIDGIAQMRQAGIINRKGAFVDPDHKDCSLSDELKSRIRKKEDYWEFVFAFGRQHKKDISLGQRDIEALQLAKGAVCAGIKTLVSLAGISLRDLDSIVMAGTFATYLKKESILSIGLTPHTDPEKIKMAGNAAHLGAIRTLLNQGTFAEGAELARRIQHIELGGDKTFTNFFMRSMYLEPTD	failed
MIIRPIIKNDDQAVAQLIRQSLRAYDLDKPDTAYSDPHLDHLTSYYEKIEKSGFFVIEERDEIIGCGGFGPLKNLIAEMQKVYIAERFRGKGLATDLVKMIEVEARKIGYRQLYLETASTLSRATAVYKHMGYCALSQPIANDQGHTAMDIWMIKDL	failed
MIISFVIQVGLFPDSLERKVIRHIENGDHLTCFLFLNYLHVLIQGFSFGGYRVLYKERELSRICPAIRFQRKSFTEVRMILSHHPSFSLVNDPQEIAQIAEWGEEQIAQYKERVTGEGKQRDIDRGKPMAQASLDEAAFLLNLASLEGTWDESLERVAQCYKEAGLNDIAKFVLYRD	failed
MIITIPIKNQKDIGTPSDSVVVLGYFDGIHKGHQELFRVANKAARKDLLPIVVMTFNESPKIALEPYHPDLFLHILNPAERERKLKREGVEELYLLDFSSQFASLTAQEFFATYIKAMNAKIIVAGFDYTFGSDKKTAEDLKNYFDGEVIIVPPVEDEKGKISSTRIRQAILDGNVKEAGKLLGAPLPSRGMVVHGNARGRTIGYPTANLVLLDRTYMPADGVYVVDVEIQRQKYRAMASVGKNVTFDGEEARFEVNIFDFNQDIYGETVMVYWLDRIRDMTKFDSVDQLVDQLKADEEVTRNWS	not failed
